In patent US20220073608A1 (JIANGSU HUAIYU PHARMACEUTICAL, published 2022):

T1: human SEMA4D, full length, on CHO-K1 cells (CHO-K1 hSEMA4D) (human, UniProt Q92854 22-862)
T1 construct: whole, on cells; also called human SEMA4D recombinant cells
T1 sequence (looked up): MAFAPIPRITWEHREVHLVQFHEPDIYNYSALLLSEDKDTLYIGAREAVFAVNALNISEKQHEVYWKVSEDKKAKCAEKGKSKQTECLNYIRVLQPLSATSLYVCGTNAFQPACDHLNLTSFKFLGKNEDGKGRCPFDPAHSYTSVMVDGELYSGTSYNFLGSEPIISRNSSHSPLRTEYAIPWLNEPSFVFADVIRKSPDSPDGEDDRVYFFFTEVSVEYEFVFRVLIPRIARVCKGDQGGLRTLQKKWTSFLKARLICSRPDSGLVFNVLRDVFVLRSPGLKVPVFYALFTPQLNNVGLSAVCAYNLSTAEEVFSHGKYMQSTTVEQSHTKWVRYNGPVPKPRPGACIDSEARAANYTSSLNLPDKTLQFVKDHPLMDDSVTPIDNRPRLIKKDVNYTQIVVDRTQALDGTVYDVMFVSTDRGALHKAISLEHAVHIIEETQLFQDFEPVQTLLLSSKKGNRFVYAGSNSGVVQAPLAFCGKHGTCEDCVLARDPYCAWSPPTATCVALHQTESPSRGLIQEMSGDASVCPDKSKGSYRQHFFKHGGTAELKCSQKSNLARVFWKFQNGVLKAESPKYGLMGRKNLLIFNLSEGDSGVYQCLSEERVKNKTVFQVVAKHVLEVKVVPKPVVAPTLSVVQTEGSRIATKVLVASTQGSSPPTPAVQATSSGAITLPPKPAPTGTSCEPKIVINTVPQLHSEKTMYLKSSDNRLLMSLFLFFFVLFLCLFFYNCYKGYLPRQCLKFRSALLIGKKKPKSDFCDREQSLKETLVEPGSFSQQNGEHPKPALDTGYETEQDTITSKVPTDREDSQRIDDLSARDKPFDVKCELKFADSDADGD

T2: hSEMA4D ECD-His (His-tagged human SEMA4D protein extracellular domain, Met22-Arg734) (human, UniProt Q92854 22-734)
T2 construct: Expressed in CHO-S cells, purified on Ni column; also called protein immunogen; immunogen A; not shown: His tag of the pCP vector
T2 sequence: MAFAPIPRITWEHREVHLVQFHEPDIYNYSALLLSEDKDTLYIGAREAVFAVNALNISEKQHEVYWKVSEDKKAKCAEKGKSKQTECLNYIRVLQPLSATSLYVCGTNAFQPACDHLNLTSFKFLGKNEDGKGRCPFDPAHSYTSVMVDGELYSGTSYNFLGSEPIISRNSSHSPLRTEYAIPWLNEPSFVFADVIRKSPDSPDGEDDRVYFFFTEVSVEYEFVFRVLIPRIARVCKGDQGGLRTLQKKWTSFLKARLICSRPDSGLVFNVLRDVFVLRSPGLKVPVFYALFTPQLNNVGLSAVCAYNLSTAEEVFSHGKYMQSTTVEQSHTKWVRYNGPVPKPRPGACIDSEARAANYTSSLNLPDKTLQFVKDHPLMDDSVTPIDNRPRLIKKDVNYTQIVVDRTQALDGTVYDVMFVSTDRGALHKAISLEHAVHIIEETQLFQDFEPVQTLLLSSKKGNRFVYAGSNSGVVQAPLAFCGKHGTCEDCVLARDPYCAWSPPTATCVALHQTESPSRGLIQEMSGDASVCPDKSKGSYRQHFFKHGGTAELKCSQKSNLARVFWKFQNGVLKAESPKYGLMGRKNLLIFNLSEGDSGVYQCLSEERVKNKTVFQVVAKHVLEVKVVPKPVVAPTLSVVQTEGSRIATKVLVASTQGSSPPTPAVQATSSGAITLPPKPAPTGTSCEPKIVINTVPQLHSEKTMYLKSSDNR


Assays:
[1] = molecular target: T1, human SEMA4D, full length, on CHO-K1 …; assay: FACS, CHO-K1 hSEMA4D cells; Ab 0.000853 nM
Method: The medium was aspirated, the cells were washed once with PBS buffer (purchased from Invitrogen), and then treated with cell dissociation fluid (TrypLE™ Express Enzyme, purchased from Life technology), and the cells were collected. After the cells counted, the cells were washed once with PBS phosphate buffer, and diluted to 3×10⁶ cells per milliliter, and added to the 96-well FACS reaction plate as 100 μL per well. 2% (w/w) fetal calf serum was added to PBS phosphate buffer as FACS buffer, with which the cells were washed once by centrifugation at 2000 rpm 4° C. 100 μL of diluted and purified leading antibodies was added to each well and the plate was incubated for 1 hour on ice. […] Cells were washed 2 times by centrifugation with FACS buffer. The cells were suspended with 200 μL of FACS buffer, and FACS (FACS Verse, purchased from BD) was used to detect and analyze the results.

[2] = molecular target: T2, hSEMA4D ECD-His (His-tagged human …); assay: ELISA, coated hSEMA4D ECD-His; Ab 0.0533 nM
Method: (§1) First, hSEMA4D ECD-His was diluted with PBS to a final concentration of 1.0 μg/mL, and then was added to a 96-well ELISA plate, 100 μL per well, sealed with plastic film and incubated overnight at 4° C. On the next day, the plate was washed with a plate washing solution, that is, PBS buffer containing 0.05% (v/v) Tween20, for 4 times, and added with blocking solution, that is, PBS buffer containing 0.05% (v/v) Tween20 and 2% (w/w) BSA, blocked at 37° C. for 1 hour. The blocking solution was poured out and the plate was washed 4 times with the plate washing solution. 100 μL of the purified leading antibodies obtained in Examples 1 and 2 was added to each well. After incubation at 37° C. for 1 hour, the plate was washed 4 times with a plate washing solution. 100 μL of horseradish peroxidase (HRP) labeled secondary antibody (purchased from Sigma) was added at a dilution of 1:10000 to each well, and the plate was incubated at 37° C. for 1 hour, and washed 4 times with a plate washing solution. 100 μL TMB substrate was added to each well, and the plate was incubated at room temperature for 5 minutes, and added with 100 μL stop solution (1.0N HCl) to each well. A microplate reader (SpectraMax M5e, purchased from Molecular Device) was used to read the A450 nm value. […] Wherein, the data in the table was the OD450 nm value.

[3] = molecular target: T3, monkey SEMA4D, full length, on CHO-K1 cells (CHO-K1 cSEMA4D) (monkey); assay: FACS, CHO-K1 cSEMA4D cells; Ab 0.00427 nM
T3 construct: whole, on cells; also called monkey SEMA4D recombinant cells
Method: After the cells were counted, they were diluted with PBS to 2×10⁶ cells per milliliter. After washing, 100 μL of diluted and purified leading antibodies was added to each well and the plate was incubated for 1 hour on ice. […] Cells were washed 2 times by centrifugation with FACS buffer. The cells were suspended with 200 μL of FACS buffer, FACS (FACS Verse, purchased from BD) was used to detect and analyze the results.

[4] = molecular target: T2, hSEMA4D ECD-His (His-tagged human …); assay: ELISA, coated hSEMA4D ECD-His; Ab 0.267 nM
Method: as §1

MFI [1] | OD450 nm [2] | MFI [3] | OD450 nm [4] | Binder
38.2 | 0.365 | 45.4 | 0.89 | 37F11F9 (antibody, V domains shown, Mouse monoclonal antibody purified from hybridoma supernatant on protein A) VH: EVQLQQSGPVLVKPGASVKMSCKASGYTFTDYYMNWVKQSHGKSLEWIGLINPYSGGSTFNQKFKAKATLTVDKSSSSAYMDLNSLTSEDSAVYYCARVGDGYYGVTHGMDYWGQGTSVTVSS VL: DIVMTPSQKFMSTTVGDRVSITCKASQNVGTAVAWYQQKPGQSPTILIYSASNRYTGVPDRFTGSGSGTDFTLTISNMKSEDLADYFCQQYYIYPFTFAAGTKLELK
47.3 | 0.551 | 97.6 | 1.28 | 32C8F10 (antibody, V domains shown, Mouse monoclonal antibody purified from hybridoma supernatant on protein A) VH: EVQLQQSGAELVRPGASVKLSCTASGFNIKDEYIHWVKQRPEQGLEWIGWIDPANGHTEYASRFQAKATITADTSSNTAYLQLSSLTSEDTAVYYCTTGDYDGFAYWGQGTLVTVST VL: QIVLTQSPAIMSASPGEKVTISCSARSSVSYMYWYQQKPGSSPKPWIYRTSNLASGVPARFSGSGSGTSYSLTISSMEAEDAATYYCQHYHTYPYTFGGGTKLEIK
47 | 0.526 | 152 | 1.15 | 31G10C5 (antibody, V domains shown, Mouse monoclonal antibody purified from hybridoma supernatant on protein A) VH: EVQLQQSGAELVRPGASVKLSCTASGFNIKDDYIHWVKQRPEQGLEWIGWIDPANGHIEYASNFQAKATITADTSSNTAYLQLSSLTSEDTAVYYCTTGDYDGFTYWGQGTLVTVST VL: QIVLTQSPAIMSASPGEKVTISCSARSSVSYMYWYQQKPGSSPKPWIYRTSNLASGVPARFSGSGSGTSYSLTISSMEAEDAATYYCQHYHTYPYTFGGGTKLEIK
46.7 | 0.817 | 139 | 1.47 | 31C11G2 (antibody, V domains shown, Mouse monoclonal antibody purified from hybridoma supernatant on protein A) VH: EVQLQQSGAELVRPGASVKLSCTASGFNIKDEYIHWVKQRPEQGLEWIGWIDPANGHTEYASRFQAKATITADTSSNTAYLQLSSLTSEDTAVYYCTTGDYDGFVYWGQGTLVTVST VL: QIVLTQSPAIMSASPGEKVTIFCSARSSVSYMYWYQQKPGSSPKPWIYRTSNLASGVPARFSGSGSGTSYSLTISSMEAEDAATYYCQHYHTYPYTFGGGTKLEIK
41.2 | 0.696 | 92.7 | 1.4 | 42B7G2 (antibody, V domains shown, Mouse monoclonal antibody purified from hybridoma supernatant on protein A) VH: QVQLQQSGAELARPGASVKLSCKASGYTFTDYGISWVKQRTGQGLEWIGEIYLRNDNSYYNEKFKGKATLTADKSSNTAYMELRSLTSEDSAVYFCARWGDHGNNYEDAMDYWGQGTSVTVSS VL: DIVLTQSPASLAMSLGKRATISCRASESVSIIGSNLIHWYQQKPGQPPKLLIYHASNLETGVPARFSGSGSRTDFTLTIDPVEEDDVAIYYCLQSRKVPYTFGGGTKLEIK
36.9 | 0.162 | 38.2 | 0.41 | 37C4F7 (antibody, V domains shown, Mouse monoclonal antibody purified from hybridoma supernatant on protein A) VH: EFQLQQSGPEVVKPGASVKISCKASGYSFTDYNMNWMKQSKGKSLEWIGVINPNYGTTTYNQNFKGKATLTVDQSSSTAYMQLNSLTSEDSAVYYCARDMYYVYAYYTMDYWGQGTSVTVSS VL: DVVMTQTPLSLPVSLGDQASISCRSSQSLVHSNGHTYLHWYLQRPGQSPTLLIYKVSNRFSGVPDRFSGSGSGTDFTLKISRVEAEDLGVYFCSQGTHVPWTFGGGTKLEIK
36.7 | 0.194 | 35 | 0.531 | 38H2E3 (antibody, V domains shown, Mouse monoclonal antibody purified from hybridoma supernatant on protein A) VH: EFQLQQSGPEVVKPGASVKISCKASGYSFTDYNMNWMKQSKGKSLEWIGVISPDYGTTTYNQNFKDKATLTVDQSSSTAYMQLNSLTSEDSAVYYCAKDMYYVYAYYTMDYWGHGTSVTVSS VL: DVVMTQTPLSLPVSLGDQASISCRSSQSLVHSNGHTYLHWYLQRPGQSPTLLIYKVSNRFSGVPDRVSGSGSGTDFTLKISRVEAEDLGVYFCSQGTHVPRTFGGGTKLEIK
